According to paper PMC6398608 (Nature medicine, 2018):

Tests used:
[1] = target: IL-2 receptor beta/gamma (Homo sapiens) (UniProt P14784); details: cited from earlier work
[2] = target: human interleukin-2 (recombinant IL-2, Humanzyme) (human, UniProt P60568); assay: SPR
[3] = target: human IL-2 crystallised with the F5111 Fab (human, UniProt P60568); assay: crystal structure
Sequence of human IL-2 crystallised with the F5111 Fab (P60568 21-153): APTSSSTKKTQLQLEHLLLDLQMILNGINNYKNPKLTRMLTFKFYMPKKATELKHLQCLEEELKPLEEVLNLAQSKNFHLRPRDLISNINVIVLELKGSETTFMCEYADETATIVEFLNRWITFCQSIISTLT

Sequence of IL-2 receptor beta/gamma (Homo sapiens) (P14784 27-240, chain 1 of 2): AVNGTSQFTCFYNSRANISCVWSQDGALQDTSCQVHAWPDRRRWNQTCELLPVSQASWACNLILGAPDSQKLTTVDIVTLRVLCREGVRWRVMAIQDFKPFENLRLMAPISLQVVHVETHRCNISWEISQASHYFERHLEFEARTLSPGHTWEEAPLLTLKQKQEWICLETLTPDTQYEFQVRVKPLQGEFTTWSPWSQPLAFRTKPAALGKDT
Sequence of IL-2 receptor beta/gamma (Homo sapiens) (P31785 23-262, chain 2 of 2, further chain): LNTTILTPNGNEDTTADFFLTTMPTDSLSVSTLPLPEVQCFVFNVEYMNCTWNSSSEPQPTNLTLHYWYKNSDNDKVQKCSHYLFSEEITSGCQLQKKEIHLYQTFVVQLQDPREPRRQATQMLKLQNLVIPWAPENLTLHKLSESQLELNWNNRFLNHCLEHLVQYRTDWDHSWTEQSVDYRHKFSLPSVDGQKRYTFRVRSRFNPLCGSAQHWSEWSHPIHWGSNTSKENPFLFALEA
Sequence of human interleukin-2 (recombinant IL-2, Humanzyme) (P60568 21-153): as the sequence (P60568 21-153) above

IL-2 (from UniProt P60568)
Kd [1]: 1 nM

B1: F5111, fully human anti-human IL-2 IgG (antibody, V domains shown)
VH: QLQLQESGPGLVKPSQTLSLTCTVSGGSISSGGYYWSWIRQHPGKGLEWIGYIYYSGSTYYNPSLKSRVTISVDTSKNQFSLKLSSVTAADTAVYYCARTPTVTGDWFDPWGRGTLVTVSS
VL: NFMLTQPHSVSESPGKTVTISCTRSSGSIASNYVQWYQQRPGSSPTTVIYEDNQRPSGVPDRFSGSIDSSSNSASLTISGLKTEDEADYYCQSYDSSNVVFGGGTKLTVL
binding result [2]: binds

B2: F5111 Fab (Fab, V domains shown)
VH: B1 VH
VL: B1 VL
binding result [3]: binds
